The values below are quoted from earlier work in PMC4122144.

Some targets named below: Asp212 (UniProt position 225, LFMVLDVSAKV); Asp85 (UniProt position 98, WARYADWLFTT); Asp96 (UniProt position 109, PLLLLDLALLV); Arg82 (UniProt position 95, PIYWARYADWL); Asp115 (UniProt position 128, ALVGADGIMIG).
Common to all, as to details: Not stated. Presumably ground-state bR, since the values are compared with calculations on the 1QHJ ground-state structure.

With “Bacteriorhodopsin (Halobacterium salinarum (not stated in the article; inferred))”, the pKa in the data set with Asp212 was under 2.5; with Asp85, 2.6; with Asp96, over 12.0; in the data set with Arg82 it was over 13.8; with Asp115, over 9.5.

As usually defined, the pKa is the pH at which an ionisable group is half protonated.
